In data set [1] the target is prostate-specific antigen (PSA) (UniProt P07288 25-261). The data set can be described thus: molecular beacon fluorescence with amplification; 0.1 mg/mL PSA; Aptamer + protein 15 min at 37 °C, then NEB buffer (pH 7.9) with Klenow exo- buffer, 37 °C, 2 h; 1 uM aptamer, 1 uM beacon, 2.5 uM primer, 2 mM dNTPs, Klenow exo- and Nt.BbvCI 1 U/uL each; salt not stated. To be noted: protein: commercial; Y-shaped complex with target.

Data set [2] concerns the target carcino-embryonic antigen (CEA) (UniProt P06731 35-685). The data set can be described thus: molecular beacon fluorescence with amplification; 0.1 mg/mL CEA; Aptamer + protein 15 min at 37 °C, then NEB buffer (pH 7.9) with Klenow exo- buffer, 37 °C, 2 h; 1 uM aptamer, 1 uM beacon, 2.5 uM primer, 2 mM dNTPs, Klenow exo- and Nt.BbvCI 1 U/uL each; salt not stated. To be noted: protein: commercial; Y-shaped complex with target.

The target of data set [3] is PDGF-BB (UniProt P01127 82-190). The data set can be described thus: molecular beacon fluorescence with amplification; 1.0 ug/mL PDGF-BB; Aptamer + protein 15 min at 37 °C, then NEB buffer (pH 7.9) with Klenow exo- buffer, 37 °C, 2 h; 1 uM aptamer, 1 uM beacon, 2.5 uM primer, 2 mM dNTPs, Klenow exo- and Nt.BbvCI 1 U/uL each; salt not stated. The settings on record: protein: commercial; chain copies: 2.
Sequence of PDGF-BB (P01127 82-190): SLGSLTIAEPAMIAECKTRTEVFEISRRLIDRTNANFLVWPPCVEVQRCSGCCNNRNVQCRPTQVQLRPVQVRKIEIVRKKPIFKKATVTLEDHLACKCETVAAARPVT

Sequence of carcino-embryonic antigen (CEA) (P06731 35-685): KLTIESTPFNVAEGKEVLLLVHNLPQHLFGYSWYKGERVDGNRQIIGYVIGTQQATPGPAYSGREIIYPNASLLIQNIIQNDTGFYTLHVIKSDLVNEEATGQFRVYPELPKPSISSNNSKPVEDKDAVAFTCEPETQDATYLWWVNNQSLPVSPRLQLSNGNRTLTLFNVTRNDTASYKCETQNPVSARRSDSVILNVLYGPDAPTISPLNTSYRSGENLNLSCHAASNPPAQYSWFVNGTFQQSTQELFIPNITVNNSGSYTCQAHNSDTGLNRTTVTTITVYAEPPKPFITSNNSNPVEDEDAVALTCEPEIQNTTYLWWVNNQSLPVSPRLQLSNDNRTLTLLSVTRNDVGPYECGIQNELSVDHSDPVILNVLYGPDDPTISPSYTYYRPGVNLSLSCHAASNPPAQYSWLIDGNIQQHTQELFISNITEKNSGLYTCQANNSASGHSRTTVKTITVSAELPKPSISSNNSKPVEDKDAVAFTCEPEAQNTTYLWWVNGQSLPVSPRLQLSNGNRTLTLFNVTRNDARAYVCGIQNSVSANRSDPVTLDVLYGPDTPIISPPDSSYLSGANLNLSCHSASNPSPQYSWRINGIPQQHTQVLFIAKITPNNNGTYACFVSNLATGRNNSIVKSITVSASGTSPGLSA
Sequence of prostate-specific antigen (PSA) (P07288 25-261): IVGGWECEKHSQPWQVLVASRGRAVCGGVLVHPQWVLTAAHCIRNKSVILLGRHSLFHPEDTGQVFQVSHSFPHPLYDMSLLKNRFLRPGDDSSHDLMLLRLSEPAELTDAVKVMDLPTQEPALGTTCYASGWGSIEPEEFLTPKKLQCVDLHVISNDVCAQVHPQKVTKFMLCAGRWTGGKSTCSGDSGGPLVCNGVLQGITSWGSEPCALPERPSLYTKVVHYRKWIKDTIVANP

B1: PDGF-BB DNA aptamer (switch) (structured_DNA)
DNA: TGCACCTCAGCAGCAGGCTACGGCACGTAGAGCATCACCATGATCCTGCATCCGAGCAGGAACG
B1: the binding result in data set [1] and in data set [2] was “no binding” each time.

B2: Control DNA aptamer (ssDNA)
DNA: TGCACCTCAGCATTTCCGTGGTAGGGCAGGTTGGGGTGATTTCTATTCAATCCGAGCAGGAACG
Consider B2, for which, in data set [3], the binding result was “no binding”.
